Measurements as given in IntAct's records for PubMed 30679749.

molecular target: hs12a_human HSPA12A (UniProt O43301)
UniProt O43301, sequence (O43301 whole entry): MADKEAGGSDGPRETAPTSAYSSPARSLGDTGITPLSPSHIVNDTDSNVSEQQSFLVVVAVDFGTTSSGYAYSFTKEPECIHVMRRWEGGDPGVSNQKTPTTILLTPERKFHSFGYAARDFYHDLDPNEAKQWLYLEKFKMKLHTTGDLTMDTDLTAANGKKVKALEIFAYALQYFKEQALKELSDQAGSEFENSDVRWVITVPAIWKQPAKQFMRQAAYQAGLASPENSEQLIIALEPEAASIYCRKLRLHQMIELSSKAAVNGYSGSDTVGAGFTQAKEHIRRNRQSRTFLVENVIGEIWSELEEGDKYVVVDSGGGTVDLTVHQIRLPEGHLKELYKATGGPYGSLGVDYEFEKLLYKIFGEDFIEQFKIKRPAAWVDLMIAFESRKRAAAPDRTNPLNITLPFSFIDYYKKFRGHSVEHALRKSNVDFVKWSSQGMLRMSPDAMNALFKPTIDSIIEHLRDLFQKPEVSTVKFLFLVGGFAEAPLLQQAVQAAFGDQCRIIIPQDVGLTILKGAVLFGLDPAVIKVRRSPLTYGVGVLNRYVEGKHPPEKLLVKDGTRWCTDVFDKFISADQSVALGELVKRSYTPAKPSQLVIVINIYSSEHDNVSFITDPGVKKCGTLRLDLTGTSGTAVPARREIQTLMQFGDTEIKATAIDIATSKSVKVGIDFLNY

Effect of a mutation on the interaction, disrupting interaction strength:
Sortilin-related receptor (Homo sapiens), Q92673 D2207A;D2208A
Sortilin-related receptor (Homo sapiens), Q92673 E2194A;D2195A;D2196A;E2197A;D2198A

Effect of a mutation on the interaction, with no effect:
Sortilin-related receptor (Homo sapiens), Q92673 D2190A;D2191A
Sortilin-related receptor (Homo sapiens), Q92673 F2205A;S2206A
Sortilin-related receptor (Homo sapiens), Q92673 T2203A;G2204A
Sortilin-related receptor (Homo sapiens), Q92673 V2209A;P2210A
